Measurements published in US5656591.

Target: commercial lactoferrin just as isolated from cow's milk (cow (bovine)) (UniProt P24627)

Substance: commercial swine pepsin (from UniProt P00791) (enzyme)
- hydrolyzing rate: 11.3%
